Legend:
[1] = biological target: asialo-α1-acid glycoprotein (Galβ1,4GlcNAc-R)
[2] = biological target: asialofetuin (Galβ1,3GalNAc-Thr/Ser and Galβ1,4GlcNAc-R)
[3] = biological target: antifreeze glycoprotein (Galβ1,3GalNAc-Thr)
[4] = biological target: ovine submaxillary asialo-mucin (GalNAc-Thr/Ser) (ovine)
[5] = biological target: asialo-α1-acid glycoprotein (Galβ1,4GlcNAc-R); remark: listed apart in the source
[6] = biological target: [14C]NeuAc labeled α1-acid glycoprotein produced from the asialo-derivative using ST3N enzyme
[7] = biological target: [14C]NeuAc labeled α1-acid glycoprotein produced from the asialo-derivative using ST3 enzyme
[8] = biological target: [14C]NeuAc labeled α1-acid glycoprotein produced from the asialo-derivative using ST6N enzyme
[9] = biological target: T1, human ST3N (Homo sapiens, UniProt Q11203); test: Acceptor specificity of soluble human ST3N (protein A fusion from COS-1 cells, on IgG Sepharose); conditions: acceptor 0.2 mM; relative to LNT
T1 sequence (Q11203 62-375): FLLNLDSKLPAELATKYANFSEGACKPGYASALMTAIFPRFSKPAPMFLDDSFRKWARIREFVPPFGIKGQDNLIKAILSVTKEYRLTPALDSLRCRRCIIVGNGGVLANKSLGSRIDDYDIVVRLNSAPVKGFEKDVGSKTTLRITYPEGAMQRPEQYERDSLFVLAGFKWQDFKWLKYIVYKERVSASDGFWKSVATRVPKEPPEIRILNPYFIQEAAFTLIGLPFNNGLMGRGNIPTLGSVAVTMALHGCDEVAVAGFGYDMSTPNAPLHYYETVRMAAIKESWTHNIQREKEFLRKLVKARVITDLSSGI

[10] = biological target: T2, ST3N (Rattus norvegicus, UniProt Q02734); test: Acceptor specificity of ST3N (Table 4); conditions: acceptor 0.2 mM
T2 sequence (Q02734 29-374 limits assumed): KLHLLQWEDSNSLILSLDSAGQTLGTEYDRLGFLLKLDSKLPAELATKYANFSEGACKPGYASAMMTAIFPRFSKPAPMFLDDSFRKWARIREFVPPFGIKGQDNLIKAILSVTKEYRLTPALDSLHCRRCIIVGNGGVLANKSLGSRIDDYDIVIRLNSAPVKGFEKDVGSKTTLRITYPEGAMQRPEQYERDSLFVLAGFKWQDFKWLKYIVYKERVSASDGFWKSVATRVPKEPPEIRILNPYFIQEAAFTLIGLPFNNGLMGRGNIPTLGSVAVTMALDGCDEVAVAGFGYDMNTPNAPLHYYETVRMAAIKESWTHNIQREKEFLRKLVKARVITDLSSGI

[11] = biological target: T3, rat ST3N (Rattus norvegicus, UniProt Q02734); test: Acceptor specificity of soluble rat ST3N fusion protein (Table 3); conditions: acceptor 0.2 mM; relative to LNT
T3 sequence (Q02734 29-374 limits assumed): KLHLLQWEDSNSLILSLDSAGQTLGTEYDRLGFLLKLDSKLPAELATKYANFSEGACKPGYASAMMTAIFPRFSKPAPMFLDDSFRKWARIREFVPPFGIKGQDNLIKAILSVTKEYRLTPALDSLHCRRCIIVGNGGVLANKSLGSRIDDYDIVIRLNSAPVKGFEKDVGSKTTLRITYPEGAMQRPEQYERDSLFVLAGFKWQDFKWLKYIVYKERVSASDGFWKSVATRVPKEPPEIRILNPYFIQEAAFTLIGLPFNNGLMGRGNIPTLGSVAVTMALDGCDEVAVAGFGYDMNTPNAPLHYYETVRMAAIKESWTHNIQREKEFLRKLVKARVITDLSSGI

[12] = biological target: T4, ST3O (Sus scrofa, UniProt Q02745); test: Acceptor specificity of ST3O (Table 4); conditions: acceptor 0.2 mM
T4 sequence (Q02745 28-343 limits assumed): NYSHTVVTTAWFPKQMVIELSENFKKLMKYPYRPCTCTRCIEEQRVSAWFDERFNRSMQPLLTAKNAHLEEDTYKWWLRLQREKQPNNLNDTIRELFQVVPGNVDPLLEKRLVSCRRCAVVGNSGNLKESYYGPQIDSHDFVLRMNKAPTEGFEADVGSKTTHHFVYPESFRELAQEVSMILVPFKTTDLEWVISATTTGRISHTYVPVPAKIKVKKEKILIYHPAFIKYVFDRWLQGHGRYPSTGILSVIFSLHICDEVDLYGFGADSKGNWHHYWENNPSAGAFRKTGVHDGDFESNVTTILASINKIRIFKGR

[13] = tested on: acceptor substrate antifreeze glycoprotein (AFGP); conditions: Rearick et al. 1979; cited from earlier work
[14] = tested on: acceptor substrate antifreeze glycoprotein (AFGP); test: Sialyltransferase activity of purified porcine liver α2,3-0 sialyltransferase; type: biochemical; conditions: after third CDP-hexanolamine agarose column
Text: FIG. 4 Purification of the α2,3-0 sialyltransferase on CDP-hexanolamine agarose (column III, CDP elution). […] In columns A and B elution of enzyme activity correlated predominantly with 48 kDa and a 45 kDa protein species, respectively (see inset, SDS-PAGE). These two species, form A and form B of the α2,3 sialyltransferase, had specific activities of 8-10 units/mg protein. The 48 kDA and 45 kDA species were blotted to a PVDF membrane and analyzed by NH2 -terminal sequencing.
The enzyme was purified from a porcine liver Triton X-100 extract by affinity chromatography on three successive columns of CDP-hexanolamineagarose. The elution profile from the first and third purification steps are shown in FIG. 3 and FIG. 4, respectively. […] These two peaks were separated by combining the indicated fractions into pools A and B, these two pools were subsequently found to be enriched in two different molecular weight forms of the α2,3-0 sialyltransferase.
The membranes were extracted three times with buffer (Conradt, H. S. et al., in Sialic Acids 1988 Proceedings of the Japanese-German Symposium on Sialic Acids (Schauer and Yamakawa, eds.) pp. 104-105, Verlag Wissenschaft and Bildung, Kiel [1988]) and the extract was passed over a 1.5 l CDP-hexanolamine agarose column (column 1) (16 umol/ml). After washing the column with 3 L buffer B, the column was eluted with a linear gradient of 0.05 to 1.0 M KCL (2.5 l×2.5 l) in buffer B. Fractions containing α2,3 sialyltransferase were combined into two pools A and B, representing the main part and the trailing end of the peak, respectively (see FIG. 3). The pools were dialysed against buffer B and subjected to another round of affinity chromatography on CDP-hexanolamine agarose (columns IIA and IIB). A 150 ml column was used for pool A and a 30 ml column was used for pool B; two preparations from column I (from total of 4 kg liver) were loaded on the same column in step II. […]

[15] = biological target: T5, (Sus scrofa, UniProt Q02745); test: Sialyltransferase activity in media of COS-1 cells transfected with sp-ST; conditions: 48 hours post-transfection, media concentrated
T5 sequence (Q02745 28-343 limits assumed): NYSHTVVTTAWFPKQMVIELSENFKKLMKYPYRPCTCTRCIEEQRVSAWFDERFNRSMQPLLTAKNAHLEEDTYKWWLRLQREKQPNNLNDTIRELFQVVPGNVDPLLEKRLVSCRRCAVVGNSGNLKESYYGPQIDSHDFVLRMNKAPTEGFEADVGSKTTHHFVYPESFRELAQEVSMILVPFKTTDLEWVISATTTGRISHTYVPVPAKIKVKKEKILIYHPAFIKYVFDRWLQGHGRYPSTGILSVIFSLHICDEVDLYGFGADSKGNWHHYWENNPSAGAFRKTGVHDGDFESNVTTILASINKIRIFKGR

[16] = tested on: sialidase from Newcastle disease virus; type: biochemical; conditions: product formed by the named enzyme, hydrolyzed with Newcastle disease virus sialidase

## soluble protein A/ST3 fusion (expression plasmid AZ3), human ST3 sialyltransferase (from UniProt P02976) (enzyme)
[1]
  Relative rate (%) of sialic acid transfer, acceptor 0.2 mM: 51%
[2]
  Relative rate (%) of sialic acid transfer, acceptor 0.2 mM: 92%
[3]
  Relative rate (%) of sialic acid transfer, acceptor 0.2 mM: 50%
[4]
  Relative rate (%) of sialic acid transfer, acceptor 0.2 mM: 3.8%

## soluble protein A/human ST3N fusion (expression plasmid A3NHP), human Galβ1,3(4)GlcNAc α2,3-sialyltransferase (from UniProt P02976) (enzyme)
[5]
  Relative activity (%), acceptor 0.2 mM: 14%

## signal peptide-ST (sp-ST), soluble form of porcine Galβ1,3GalNAc α2,3 sialyltransferase (pSVL-spST) (enzyme)
[1]
  Relative rate (%) of sialic acid transfer, acceptor 0.2 mM: 0%
[2]
  Relative rate (%) of sialic acid transfer, acceptor 0.2 mM: 26%
[3]
  Relative rate (%) of sialic acid transfer, acceptor 0.2 mM: 57%
[4]
  Relative rate (%) of sialic acid transfer, acceptor 0.2 mM: 5%

## sialidase from Newcastle disease virus (Oxford Glycosystems) (enzyme)
[6]
  release of [14C]NeuAc from labeled glycoprotein (% of total 14C NeuAc released): 82
[7]
  release of [14C]NeuAc from labeled glycoprotein (% of total 14C NeuAc released): 83
[8]
  release of [14C]NeuAc from labeled glycoprotein (% of total 14C NeuAc released): 0

## CC(=O)N[C@H]1C(O)O[C@H](CO)[C@@H](O)[C@@H]1O[C@@H]1O[C@H](CO)[C@H](O)[C@H](O)[C@H]1O (stereo partly shown) [Galβ1,3GlcNAc]
[9]
  Relative activity (%) Human: 48%
[10]
  Relative rate (%) ST3N: 49%
[11]
  Relative activity (%) Rat: 49%
[12]
  Relative rate (%) ST30: 2%

B1: Form B: 45 kDa molecular weight form of the porcine liver α2,3 sialyltransferase (protein)
chain: NYSHTVVTTAWFPKQMVIELSENFKKLMKYPYRPCTCTRCIEEQRVSAWFDERFNRSMQPLLTAKNAHLEEDTYKWWLRLQREKQPNNLNDTIRELFQVVPGNVDPLLEKRLVSCRRCAVVGNSGNLKESYYGPQIDSHDFVLRMNKAPTEGFEADVGSKTTHHFVYPESFRELAQEVSMILVPFKTTDLEWVISATTTGTISHTYVPVPAKIKVKKEKILIYHPAFIKYVFDRWLQGHGRYPSTGILSVIFSLHICDEVDLYGFGADSKGNWHHYWENNPSAGAFRKTGVHDGDFESNVTTILASINKIRIFKGR
[13]
  catalytic activity (in words): fully catalytically active
[14]
  specific activity: 8-10 units/mg protein

B2: sp-ST: fusion of insulin signal sequence, 9 linker amino acids and the catalytic domain of α2,3-0 sialyltransferase (protein)
chain: NYSHTVVTTAWFPKQMVIELSENFKKLMKYPYRPCTCTRCIEEQRVSAWFDERFNRSMQPLLTAKNAHLEEDTYKWWLRLQREKQPNNLNDTIRELFQVVPGNVDPLLEKRLVSCRRCAVVGNSGNLKESYYGPQIDSHDFVLRMNKAPTEGFEADVGSKTTHHFVYPESFRELAQEVSMILVPFKTTDLEWVISATTTGTISHTYVPVPAKIKVKKEKILIYHPAFIKYVFDRWLQGHGRYPSTGILSVIFSLHICDEVDLYGFGADSKGNWHHYWENNPSAGAFRKTGVHDGDFESNVTTILASINKIRIFKGR
[15]
  sialyltransferase activity in media: contained milliunits/ml of the sialyltransferase

B3: ST3: human sialyltransferase of SEQ. ID. NO:12; β-galactoside α2,3-sialyltransferase (protein)
chain: MCPAGWKLLAMLALVLVVMVWYSISREDRYIEPFYFPIPEKKEPCLQGEAESKASKLFGNYSRDQPIFLRLEDYFWVKTPSAYELPYGTKGSEDLLLRVLAITSSSIPKNIQSLRCRRCVVVGNGHRLRNSSLGDAINKYDVVIRLNNAPVAGYEGDVGSKTTMRLFYPESAHFDPKVENNPDTLLVLVAFKAMDFHWIETILSDKKRVRKGFWKQPPLIWDVNPKQIRILNPFFMEIAADKLLSLPMQQPRKIKQKPTTGLLAITLALHLCDLVHIAGFGYPDAYNKKQTIHYYEQITLKSMAGSGHNVSQEALAIKRMLEMGAIKNLTSF
[16]
  total [14C]NeuAc released from labeled α1-acid glycoprotein product: 83%

B4: rat Galβ1,3(4)GlcNAc α2,3 sialyltransferase (protein)
chain: KLHLLQWEDSNSLILSLDSAGQTLGTEYDRLGFLLKLDSKLPAELATKYANFSEGACKPGYASAMMTAIFPRFSKPAPMFLDDSFRKWARIREFVPPFGIKGQDNLIKAILSVTKEYRLTPALDSLHCRRCIIVGNGGVLANKSLGSRIDDYDIVIRLNSAPVKGFEKDVGSKTTLRITYPEGAMQRPEQYERDSLFVLAGFKWQDFKWLKYIVYKERVSASDGFSKSVATRVPKEPPEIRILNPYFIQEAAFTLIRLPFNNGLMGRGNIPTLGSVAVTMALDGCDEVAVAGFGYDMNTPNAPLHYYETVRMAAIKESWTHNIQREKEFLRKLVKARVITDLSSGI
[16]
  total [14C]NeuAc released from labeled α1-acid glycoprotein product: 82%

B5: rat Galβ1,4GlcNAc α2,6-sialyltransferase (protein)
chain: SKQDPKEDIPILSYHRVTAKVKPQPSFQVWDKDSTYSKLNPRLLKIWRNYLNMNKYKVSYKGPGPGVKFSVEALRCHLRDHVNVSMIEATDFPFNTTEWEGYLPKENFRTKVGPWQRCAVVSSAGSLKNSQLGREIDNHDAVLRFNGAPTDNFQQDVGSKTTIRLMNSQLVTTEKRFLKDSLYTEGILIVWDPSVYHADIPKWYQKPDYNFFETYKSYRRLDPSQPFYILKPQMPWELWDIIQEISADLIQPNPPSSGMLGIIIMMTLCDQVDIYEFLPSKRKTDVCYYHQKFFDSACTMGAYHPLLFEKNMVKHLNEGTDEDIYLFGKATLSGFRNIRC
[16]
  total [14C]NeuAc released from labeled α1-acid glycoprotein product: 0%

Source: patent US5962294A, “Compositions and methods for the identification and synthesis of sialyltransferases” (The Regents of the University of California, priority 1993, dated 1999)
